Measured values: US7470669B2, “Isolated polypeptide comprising a leptin fragment” (Serono Genetics Institute, S.A., priority 1999, dated 2008)

Columns and labels:
LSR = LSR activity (oleate-induced 125I-LDL binding, uptake, degradation) in primary cultures of rat hepatocytes; type: cell-based
Experimental: FIGS. 6A, 6B, and 6C show the effect of leptin on ^125I-LDL and ^125I-chylomicron binding to LSR in primary cultures of rat hepatocytes. For FIG. 6A, primary cultures of rat hepatocytes (48 hours after plating) were incubated at 37° C. for 30 min in the absence (□) or presence (▪) of 50 ng/mL leptin in Buffer A, followed by a 20 min incubation at 37° C. with 0.5 mM oleate. The cells were then washed with ice-cold PBS, precooled for 10 min, and then incubated for 1 h at 4° C. with increasing concentrations of ^125I-LDL in Buffer A. Cells were washed, were lysed in 0.1 N NaOH and were counted for radioactivity. Results are shown as the mean of duplicate determinations. […] The media was recovered and the radioactivity was measured. […] The amount of ^125I-chylomicrons bound was determined, and results are shown as means±SD of triplicate (irrelevant) or quadruplicate (anti-LSR) determinations.
FIGS. 7A and 7B show a comparison of the effect of human and mouse leptin on LSR activity in rat hepatocytes and on postprandial increase in plasma TG in db^Pas/db^Pas mice. […] The media were removed and were analyzed for TCA-soluble degradation products. […] The data represent the difference in TG concentrations measured at t=0 and the average of the concentrations at 3 and 4 hours. […]

ob/ob mice = assay: Food intake of ob/ob mice under daily subcutaneous injections; type: in vivo, mouse; details: daily subcutaneous injections of 25 μg over a 12 day period
Experimental: A synthetic peptide with a sequence identical to that of mouse leptin between residues 117-138 was obtained and found to stimulate the oleate-induced binding of ^125I-LDL in primary cultures of rat hepatocytes (FIG. 11B, insert). Daily subcutaneous injections of 25 μg of this synthetic leptin peptide to ob/ob mice had no effect on the food intake over a 12 day period (7.6±0.4 g/day in ob/ob receiving saline and 6.7±0.3 g/day in ob/ob receiving peptide; n=4, NS). Daily injections of 25 μg of mouse leptin caused a reduction of food intake to 4.7±0.5 g/day (n=3; p<0.003 versus controls).

B1: mouse leptin: recombinant mouse leptin, laboratory-prepared or commercial (Sigma, Calbiochem) (protein, UniProt P41160 22-167, looked up)
Leptin: VPIQKVQDDTKTLIKTIVTRINDISHTQSVSAKQRVTGLDFIPGLHPILSLSKMDQTLAVYQQVLTSLPSQNVLQIANDLENLRDLLHLLAFSKSCSLPQTSGLQKPESLDGVLEASLYSTEVVALSRLQGSLQDILQQLDVSPEC
stimulation of LSR-mediated LDL degradation in primary cultures of rat hepatocytes (LSR; 10 ng/mL recombinant leptin): more efficient than human leptin | oleate-induced 125I-LDL binding to the cell surface (LSR; rat hepatocytes, 30 min preincubation with 20 ng/mL at 37° C., binding at 4° C.): increased | food intake (ob/ob mice): 4.7 ± 0.5 g/day
